Measurements from patent US20220298237A1 (KEIO UNIVERSITY, published 2022).

How the values were obtained:
[1] = biological target: T1, mouse aquaporin 3 (AQP3) on cells (mouse, UniProt Q8R2N1 1-292); test: fluorescence binding assay on PAM212 cells, 10 µg/mL (FIG. 5B)
T1 construct: whole, on cells; Water channel membrane protein; also called mouse AQP3; AQP3 on PAM212 cells
T1 sequence (looked up): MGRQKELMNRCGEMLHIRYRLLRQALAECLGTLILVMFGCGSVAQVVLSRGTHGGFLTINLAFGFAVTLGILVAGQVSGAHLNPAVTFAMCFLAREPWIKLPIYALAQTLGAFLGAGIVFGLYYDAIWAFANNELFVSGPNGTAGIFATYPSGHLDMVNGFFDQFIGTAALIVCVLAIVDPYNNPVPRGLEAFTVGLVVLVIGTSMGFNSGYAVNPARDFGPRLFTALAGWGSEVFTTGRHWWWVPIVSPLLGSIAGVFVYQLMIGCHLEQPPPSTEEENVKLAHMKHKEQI
Experimental: PAM212 and macrophage cells were reacted with each anti AQP3 antibody (0.1, 1, or 10 μg/mL) at 4° C. for 1 hour. After washing the cells, a fluorescent-labeled secondary antibody was added and the reaction was allowed to occur additionally for 1 hour (4° C.). By measuring the fluorescence intensity, the binding property of each anti AQP3 antibody to cells was obtained.
The assay was also performed using PAM212 cells and antibodies A, B, C, D, E, F, G, H, and J at a concentration of 10 μg/mL. Binding of antibodies C, D, E, G, and J to PAM212 cells was statistically significant.

[2] = biological target: T2, human aquaporin 3 (AQP3) on cells (human, UniProt Q92482 1-292); test: flow cytometry on HaCaT cells, 10 µg/mL (FIG. 6A)
T2 construct: whole, on cells; Water channel membrane protein; also called human AQP3; AQP3 on HaCaT cells
T2 sequence (looked up): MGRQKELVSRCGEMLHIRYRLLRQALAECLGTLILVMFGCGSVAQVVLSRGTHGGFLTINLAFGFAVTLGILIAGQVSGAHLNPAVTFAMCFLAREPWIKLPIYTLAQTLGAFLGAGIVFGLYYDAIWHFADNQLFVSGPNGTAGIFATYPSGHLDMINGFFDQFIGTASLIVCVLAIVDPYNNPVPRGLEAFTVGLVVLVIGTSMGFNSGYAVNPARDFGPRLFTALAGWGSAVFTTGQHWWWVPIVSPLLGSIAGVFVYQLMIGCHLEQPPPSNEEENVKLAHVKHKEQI
Experimental: HaCaT cells were treated with Cell Dissociation Buffer for 30 minutes at 37° C., and then dislodged and collected. Then, the cells were reacted with 10 μg/mL anti AQP3 antibody at 4° C. for 1 hour. After washing the cells, a fluorescent-labeled secondary antibody was added and the reaction was allowed to occur additionally for 1 hour (4° C.). Then, by using a flow cytometer, fluorescence intensity was measured (FIG. 6A to FIG. 6C). FIG. 6A represents the result of a case in which antibody G was used, FIG. 6B represents the result of a case in which antibody H was used, and FIG. 6C represents the result of a case in which antibody J was used. […] The histogram expressed with bold line represents a case in which the anti AQP3 antibody was used while the histogram expressed with thin dotted line represents a case as a control in which the anti AQP3 antibody was not used (addition of non-specific IgG). […] Ratio (%) of the cells included in this range (=cells showing positive staining by anti AQP3 antibody) is also shown in the drawing.

[3] = biological target: T3, oligopeptide ATYPSGHLDM (SEQ ID NO: 1) (human and mouse); test: ELISA on the immunogen peptide (FIG. 2)
T3 construct: Synthetic peptide; positions 148 to 157 of the human AQP3 polypeptide, identical in mouse; also called peptide used for immunization; oligopeptide 5
T3 peptide: ATYPSGHLDM

[4] = biological target: T4, mouse AQP3 in lysate of HEK293T cells overexpressing mouse AQP3 and a myc-biotinylated tag (mouse, UniProt Q8R2N1 1-292); test: ELISA on lysate of HEK293T cells overexpressing mouse AQP3 (FIG. 3)
T4 construct: Cell lysate used in ELISA; also called AQP3 containing cell lysate; not shown: myc-biotinylated tag
T4 sequence (looked up): T1 sequence (looked up)
Excerpt: Cell lysate from HEK293T cells overexpressing mouse AQP3 and a myc-biotinylated tag was used in an ELISA assay to measure the binding of antibodies A, B, C, D, E, F, G, H, J, and K to AQP3. Cell lysate from HEK293T cells overexpressing the myc-biotinylated tag but not AQP3 was used as control. […] C. Antibody binding to AQP3 expressing cells

[5] = biological target: T2, human aquaporin 3 (AQP3) on cells; test: fluorescence binding assay on HaCaT cells, 10 µg/mL (FIG. 5C)
[6] = biological target: T1, mouse aquaporin 3 (AQP3) on cells; test: FACS on HEK293 cells stably overexpressing mouse AQP3, 10 µg/mL
Experimental: A FACS assay was also performed using HEK293 cells stably overexpressing mouse AQP3. Cells were incubated with antibody E, H, J, or negative control IgG at a concentration of 10 μg/mL for one hour and then sorted by FACS. Separately, HEK293 cells stably overexpressing human AQP3 were incubated with antibody E at a concentration of 10 μg/mL for one hour and then sorted by FACS.

Measured: binding result

B1: Antibody G (antibody, mouse IgG2a, kappa, V domains shown)
VH: QVQLKQSGAELVRPGASVTLSCKASGYTFTDYEMHWVKQTPVHGLEWIGGIDPETGGTAYNQKFKGKAILTADKSSSTAYMELRSLTSEDSAVYYCTRWGAITSFVALRGFAYWGQGTLVTVSS
VL: DIQMTQSPSSLSVSAGEKVTMSCKSSQSLLNSGNQKNYLAWYQQKPGQPPKLLIYGASTRESGVPDRFTGSGSGTDFTLTISSVQAEDLAVYYCQNDHSYPPTFGAGTKLELKR
notes: also called anti AQP3 antibody G; Antiboy G
binds: [1] | [2] | [3] | [4]

B2: Antibody H (antibody, mouse IgG2a, kappa, V domains shown)
VH: EVKLVESGGDLVKPGGSLKLSCAASGFTFSSYGMSWVRQTPDKRLEWVATISRRSIYTYYPDSVQGRFTISRDNAKNTLYLQMSSLKSEDTAMYYCARLSLYDYDGARYTMDYWGQGTSVTVSS
VL: DIKMTQSPKFMSTSVGDRVSITCKASQDVGTAVAWYQQKPGQSPKLLIYWASTRHTGVPDRFTGSGSGTDFTLTISNVQSEDLADYFCQQYSSYHTFGAGTKLEIKR
notes: also called anti AQP3 antibody H
binds: [5] | [3] | [6] | [4]
